In this assay the target is RECQ5–CBD fusion protein (human, UniProt O94762 1-991). As to the kind of experiment: pull-down.
Sequence of RECQ5–CBD fusion protein (O94762 whole entry, the tested form may be a part): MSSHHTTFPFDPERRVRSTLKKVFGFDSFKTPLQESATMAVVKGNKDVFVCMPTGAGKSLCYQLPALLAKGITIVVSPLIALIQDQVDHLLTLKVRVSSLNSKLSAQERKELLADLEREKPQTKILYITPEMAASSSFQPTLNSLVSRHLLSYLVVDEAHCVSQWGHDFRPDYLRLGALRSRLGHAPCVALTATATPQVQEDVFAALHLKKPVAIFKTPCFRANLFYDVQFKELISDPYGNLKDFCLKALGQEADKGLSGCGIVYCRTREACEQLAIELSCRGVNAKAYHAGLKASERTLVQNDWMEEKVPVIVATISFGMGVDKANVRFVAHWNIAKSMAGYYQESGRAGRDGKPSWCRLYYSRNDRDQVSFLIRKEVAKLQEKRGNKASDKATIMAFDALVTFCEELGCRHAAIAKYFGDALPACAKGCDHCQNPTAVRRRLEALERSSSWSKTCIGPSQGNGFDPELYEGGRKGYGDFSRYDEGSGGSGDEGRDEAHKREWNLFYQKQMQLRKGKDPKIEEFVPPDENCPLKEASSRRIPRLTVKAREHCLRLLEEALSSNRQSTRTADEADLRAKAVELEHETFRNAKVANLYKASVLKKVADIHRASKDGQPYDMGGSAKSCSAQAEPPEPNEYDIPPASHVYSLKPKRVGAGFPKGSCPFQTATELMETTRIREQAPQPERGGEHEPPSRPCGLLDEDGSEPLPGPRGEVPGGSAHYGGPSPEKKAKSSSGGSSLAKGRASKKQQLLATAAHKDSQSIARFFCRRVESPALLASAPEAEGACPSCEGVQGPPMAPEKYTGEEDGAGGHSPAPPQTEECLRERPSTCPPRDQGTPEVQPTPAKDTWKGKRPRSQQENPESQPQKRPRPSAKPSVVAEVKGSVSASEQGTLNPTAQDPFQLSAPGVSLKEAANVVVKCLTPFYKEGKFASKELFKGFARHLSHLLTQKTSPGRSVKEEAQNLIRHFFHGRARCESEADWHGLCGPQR

B1: (His)6-MRE11, individually purified (natural protein, human, UniProt P49959 1-708, looked up)
chain: MSTADALDDENTFKILVATDIHLGFMEKDAVRGNDTFVTLDEILRLAQENEVDFILLGGDLFHENKPSRKTLHTCLELLRKYCMGDRPVQFEILSDQSVNFGFSKFPWVNYQDGNLNISIPVFSIHGNHDDPTGADALCALDILSCAGFVNHFGRSMSVEKIDISPVLLQKGSTKIALYGLGSIPDERLYRMFVNKKVTMLRPKEDENSWFNLFVIHQNRSKHGSTNFIPEQFLDDFIDLVIWGHEHECKIAPTKNEQQLFYISQPGSSVVTSLSPGEAVKKHVGLLRIKGRKMNMHKIPLHTVRQFFMEDIVLANHPDIFNPDNPKVTQAIQSFCLEKIEEMLENAERERLGNSHQPEKPLVRLRVDYSGGFEPFSVLRFSQKFVDRVANPKDIIHFFRHREQKEKTGEEINFGKLITKPSEGTTLRVEDLVKQYFQTAEKNVQLSLLTERGMGEAVQEFVDKEEKDAIEELVKYQLEKTQRFLKERHIDALEDKIDEEVRRFRETRQKNTNEEDDEVREAMTRARALRSQSEESASAFSADDLMSIDLAEQMANDSDDSISAATNKGRGRGRGRRGGRGQNSASRGGSQRGRADTGLETSTRSRNSKTAVSASRNMSIIDAFKSTRQQPSRNVTTKNYSEVIEVDESDVEEDIFPTTSKTDQRWSSTSSSKIMSQSQVSKGVDFESSEDDDDDPFMNTSSLRRNRR
B1: the binding result is given as “binds”.

B2: (His)6-NBS1, individually purified (natural protein, human, UniProt O60934 1-754, looked up)
chain: MWKLLPAAGPAGGEPYRLLTGVEYVVGRKNCAILIENDQSISRNHAVLTANFSVTNLSQTDEIPVLTLKDNSKYGTFVNEEKMQNGFSRTLKSGDGITFGVFGSKFRIEYEPLVACSSCLDVSGKTALNQAILQLGGFTVNNWTEECTHLVMVSVKVTIKTICALICGRPIVKPEYFTEFLKAVESKKQPPQIESFYPPLDEPSIGSKNVDLSGRQERKQIFKGKTFIFLNAKQHKKLSSAVVFGGGEARLITEENEEEHNFFLAPGTCVVDTGITNSQTLIPDCQKKWIQSIMDMLQRQGLRPIPEAEIGLAVIFMTTKNYCDPQGHPSTGLKTTTPGPSLSQGVSVDEKLMPSAPVNTTTYVADTESEQADTWDLSERPKEIKVSKMEQKFRMLSQDAPTVKESCKTSSNNNSMVSNTLAKMRIPNYQLSPTKLPSINKSKDRASQQQQTNSIRNYFQPSTKKRERDEENQEMSSCKSARIETSCSLLEQTQPATPSLWKNKEQHLSENEPVDTNSDNNLFTDTDLKSIVKNSASKSHAAEKLRSNKKREMDDVAIEDEVLEQLFKDTKPELEIDVKVQKQEEDVNVRKRPRMDIETNDTFSDEAVPESSKISQENEIGKKRELKEDSLWSAKEISNNDKLQDDSEMLPKKLLLTEFRSLVIKNSTSRNPSGINDDYGQLKNFKKFKKVTYPGAGKLPHIIGGSDLIAHHARKNTELEEWLRQEMEVQNQHAKEESLADDLFRYNPYLKRRR
Consider B2, for which the binding result is “binds”.

The record behind these values is PMC2677886 (Nucleic Acids Research, 2009).
